Reference: patent US20220332829A1 (NANJING SANHOME PHARMACEUTICAL, published 2022)

Columns and labels:
[1] = molecular target: T1, human 4Ig-B7-H3-His protein (human, UniProt Q5ZPR3 29-466); assay: Biacore X100 SPR, 4Ig-B7-H3-His coupled to CM5 chip, antibody injected
T1 construct: also called human B7-H3 protein
T1 sequence: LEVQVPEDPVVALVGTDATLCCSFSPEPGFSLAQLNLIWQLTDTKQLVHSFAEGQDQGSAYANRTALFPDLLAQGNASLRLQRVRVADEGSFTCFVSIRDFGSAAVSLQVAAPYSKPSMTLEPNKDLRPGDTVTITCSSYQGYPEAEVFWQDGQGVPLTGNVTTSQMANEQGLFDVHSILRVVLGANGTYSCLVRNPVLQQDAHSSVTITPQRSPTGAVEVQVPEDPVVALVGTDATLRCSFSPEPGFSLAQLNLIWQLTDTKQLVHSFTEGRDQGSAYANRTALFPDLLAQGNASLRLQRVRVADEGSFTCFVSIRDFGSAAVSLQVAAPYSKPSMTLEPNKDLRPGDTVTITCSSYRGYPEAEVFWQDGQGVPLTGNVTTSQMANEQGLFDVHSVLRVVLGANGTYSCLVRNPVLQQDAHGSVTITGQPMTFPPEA
Excerpt: The humanized anti-B7-H3 antibodies prepared in Example 4 were subjected to affinity assay by Biacore. The antigen 4Ig-B7-H3-His was first coupled to the surface of a CM5 chip (GE, Cat. No. BR100012), and the active groups of the uncoupled protein were blocked with ethanolamine. After the baseline was stable, the hu39-01, hu65-13, and hBRCA84D antibodies were respectively diluted in equal proportions. The diluted antibodies of each concentration were placed on the sample injection tray of the instrument in sequence, and the program was set to inject samples respectively.

[2] = molecular target: T2, human 2Ig-B7-H3-His protein (human, UniProt Q5ZPR3 29-463); assay: ELISA, plate coated with human 2Ig-B7-H3-His, detection with anti-human IgG HRP, OD450
T2 sequence: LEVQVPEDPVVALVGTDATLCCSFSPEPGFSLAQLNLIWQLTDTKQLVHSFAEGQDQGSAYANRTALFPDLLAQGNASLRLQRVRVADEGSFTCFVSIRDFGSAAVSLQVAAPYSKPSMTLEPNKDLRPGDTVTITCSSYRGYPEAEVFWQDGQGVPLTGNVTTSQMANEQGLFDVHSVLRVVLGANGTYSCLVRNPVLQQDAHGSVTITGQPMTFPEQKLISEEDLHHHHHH
Description: The binding activity of antibodies was analyzed by ELISA. 96-well ELISA plates were coated with human 4Ig-B7-H3-His protein or 2Ig-B7-H3-His protein (1 μg/well, prepared in Examples 1 and 2) and incubated overnight at 4° C. The plates were washed 3 times with 1×PBST and then blocked with 5% skim milk at 37° C. for 2 h. After washing 3 times with 1×PBST, the anti-B7-H3 antibody of the present disclosure was used as the primary antibody and added to the ELISA plates in 5-fold gradient dilution starting from 2 μg/mL with a total of 8 concentrations: 2,000 ng/mL, 400 ng/mL, 80 ng/mL, 16 ng/mL, 3.2 ng/mL, 0.64 ng/mL, 0.128 ng/mL and 0.0256 ng/mL respectively. The plates were incubated at 37° C. for 2 h with hBRCA84D as the positive control antibody. After washing 5 times with 1×PBST, Anti-Human IgG HRP (Jackson, 109-035-003, 1:5000) was used as the secondary antibody and incubated at 37° C. for 1 h. After washing 5 times with 1×PBST, color developing solution TMB was added to the plate, and microplate reader (Thermo, Multiskan FC) was used to read OD450 value after termination of the reaction. EC₅₀ was generated by GraphPad.

[3] = molecular target: T3, B7-H3 on surface of tumor cell (786-0, MDA-MB-231, Raji-B7-H3 cells) (human, UniProt Q5ZPR3 29-534); assay: cell-based or functional assay
T3 sequence (looked up): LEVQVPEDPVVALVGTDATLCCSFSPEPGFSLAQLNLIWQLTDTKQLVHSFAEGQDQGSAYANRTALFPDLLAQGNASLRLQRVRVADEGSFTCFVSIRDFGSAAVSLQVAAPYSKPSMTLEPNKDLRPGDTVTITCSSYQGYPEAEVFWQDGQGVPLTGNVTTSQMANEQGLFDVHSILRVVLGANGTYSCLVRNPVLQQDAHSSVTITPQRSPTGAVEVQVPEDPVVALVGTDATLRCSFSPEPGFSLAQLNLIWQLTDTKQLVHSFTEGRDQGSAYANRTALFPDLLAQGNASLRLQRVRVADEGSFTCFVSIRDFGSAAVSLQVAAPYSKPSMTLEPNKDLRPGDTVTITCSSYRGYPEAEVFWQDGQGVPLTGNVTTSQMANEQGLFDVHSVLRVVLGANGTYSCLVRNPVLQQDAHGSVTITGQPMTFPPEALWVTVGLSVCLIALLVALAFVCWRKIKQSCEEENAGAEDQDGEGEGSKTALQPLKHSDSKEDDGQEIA

[4] = molecular target: T3, B7-H3 on surface of tumor cell (786-0, …); assay: FACS on MDA-MB-231 cells
Description: The binding activity of antibodies to B7-H3 on the surface of tumor cells was analyzed by FACS. Mean fluorescence intensity (MFI) and EC₅₀ detected by FACS indicate the binding activity of the antibody to cells. After 786-0 and MDA-MB-231 cells were digested, they were resuspended in 2% FBS-PBS solution and counted. After raji-B7-H3 cells were collected, they were resuspended in 2% FBS-PBS and counted. The above cells were plated in a cell plate with 1×10⁵ cells per well. The anti-B7-H3 antibody of the present disclosure was used as the primary antibody and added to cell plates in gradient dilution starting from 20 μg/mL with a total of 8 concentrations: 20,000 ng/mL, […], 2,000 ng/mL, 400 ng/mL, 80 ng/mL, 16 ng/mL, 3.2 ng/mL, and 0.64 ng/mL respectively. The plates were incubated at 4° C. for 1 h with hBRCA84D as the positive control antibody. PE-Anti-Human IgG (Biolegend, Cat. No. 409303, 1.25 μl/well) was used as the secondary antibody, washed, and detected for the fluorescence intensity generated by the binding of the antibody to the cell surface by a flow cytometer.

B1: hBRCA84D (antibody, human IgG1, kappa, V domains shown)
VH: EVQLVESGGGLVQPGGSLRLSCAASGFTFSSFGMHWVRQAPGKGLEWVAYISSDSSAIYYADTVKGRFTISRDNAKNSLYLQMNSLRDEDTAVYYCGRGRENIYYGSRLDYWGQGTTVTVSS
VL: DIQLTQSPSFLSASVGDRVTITCKASQNVDTNVAWYQQKPGKAPKALIYSASYRYSGVPSRFSGSGSGTDFTLTISSLQPEDFATYYCQQYNNYPFTFGQGTKLEIKR
notes: Humanized antibody from WO2011/109400; also called positive control antibody hBRCA84D; control antibody hBRCA84D
B1 gave a Kd [1] of 0.455 nM, a koff [1] of 0.000111 s⁻¹ and a kon [1] of 243000 M⁻¹ s⁻¹. For the same binder, the “EC50 (read off the curve)” value [2] was ~0.01 µg/mL, the “EC50 Ratio (ADCC, LDH method; EC50 of hBRCA84D divided by EC50 of the antibody; 786-0 target cells, human PBMC effectors)” value [3] was 1 and the EC50 [4] was 0.384 µg/mL. The “Mean fluorescence intensity (MFI)” value [4] was 35800.
